Molecular target: CtBP2_(31-364)-StrepI (human, UniProt P56545 31-364)
Test: ITC

NKEGDTAWDLTPE [G9a peptide encompassing residues 881 to 893]
Kd: 7.2 µM
